# Test results reported in paper PMC10501626 (PLOS Pathogens, 2023).
# T1: LGP2 regulatory domain (LGP2 RD, residues 537–678), wild type (human, UniProt Q96C10 537-678, biotinylated (biotin added at 3:1 molar ratio) for biolayer interferometry)
# T1 construct: also called LGP2 RD WT; WT
# T1 sequence (looked up): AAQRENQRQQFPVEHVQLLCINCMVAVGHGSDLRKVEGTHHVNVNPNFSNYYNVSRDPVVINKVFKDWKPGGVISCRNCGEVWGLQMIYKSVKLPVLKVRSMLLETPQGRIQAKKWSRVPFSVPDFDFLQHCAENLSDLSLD
# Target: T1, LGP2 regulatory domain (LGP2 RD, …)
# Experiment: BLI
# Settings: both partners purified
binder,measurement,value
"TBEV NS5 protein, purified (natural protein) GGSEGDTLGDLWKRKLNGCTKEEFFAYRRTGILETERDKARELLKRGETNMGLAVSRGTAKLAWLEERGYATLKGEVVDLGCGRGGWSYYAASRPAVMSVKACAIAGKGHETPKMVTSLGWNLIKFRAGMDVFSMQPHRADTIMCDIGESNPDAVVEGERTRKVILLMEQWKNRNPTATCVFKALAPYRPEVTEALHRFQLQWGGGLVRTPFSRNSTHEMYYSTAITGNIVNSVNIQSRKLLARFGDQRGPTRVPELDLGVGTRCVVLAEDKVKEKDVQERISALREQYGETWHMDREHPYRTWQYWAATACANRVGGALINGVVKLLSWPWNAREDVVRMAMTDTTAFGQQRVFKEKVDTKAQEPQPGTKVIMRAVNDWILERLARKSKPRMCSREEFIAKVKSNAALGAWSDEQNRWSSAKEAVEDPAFWQLVDEERERHLAGRCAHCVYNMMGKREKKLGEFGVAKGSRAIWYMWLGSRFLEFEALGFLNEDHWASRGSSGSGVEGISLNYLGWHLKGLSTLEGGLFYADDTAGWDTKVTNADLEDEEQLLRYMEGEHKQLAATIMQKAYHAKVVKVARPSRDGGCIMDVITRRDQRGSGQVVTYALNTLTNIKVQLIRMMEGEGVIEASDAHNPRLLRVERWLRDHGEERLGRMLVSGDDCVVRPVDDRFSGALYFLNDMAKTRKDIGEWDHSVGFSNWEEVPFCSHHFHELVMKDGRTLIVPCRDQDELVGRARVSPGCGRSVRETACLSKAYGQMWLLSYFHRRDLRTLGLAICSAVPVDWVPAGRTTWSIHASGAWMTTEDMLDVWNRVWILDNPFMHSKEKIAEWRDVPYLPKSHDMLCSSLVGRKERAEWAKNIWGAVEKVRKMIGQEKFKDYLSCMDRHDLHWESKLESSII",Kd,1200 ± 800 nM
